Laboratory results from patent US20100331246A1 (INDIANA UNIVERSITY RESEARCH AND TECHNOLOGY, published 2010).
Where two headings read alike, the source gives them in different places.

Legend:
Test in all cases: cell-based or functional assay
GLP-1 receptor [1] = molecular target: GLP-1 receptor (UniProt P43220)
GLP-1 receptor [2] = molecular target: GLP-1 receptor (UniProt P43220 24-463, limits assumed)
glucagon receptor = glucagon receptor (UniProt P47871 26-477)

GLP-1 receptor (UniProt P43220), sequence (P43220 24-463 limits assumed): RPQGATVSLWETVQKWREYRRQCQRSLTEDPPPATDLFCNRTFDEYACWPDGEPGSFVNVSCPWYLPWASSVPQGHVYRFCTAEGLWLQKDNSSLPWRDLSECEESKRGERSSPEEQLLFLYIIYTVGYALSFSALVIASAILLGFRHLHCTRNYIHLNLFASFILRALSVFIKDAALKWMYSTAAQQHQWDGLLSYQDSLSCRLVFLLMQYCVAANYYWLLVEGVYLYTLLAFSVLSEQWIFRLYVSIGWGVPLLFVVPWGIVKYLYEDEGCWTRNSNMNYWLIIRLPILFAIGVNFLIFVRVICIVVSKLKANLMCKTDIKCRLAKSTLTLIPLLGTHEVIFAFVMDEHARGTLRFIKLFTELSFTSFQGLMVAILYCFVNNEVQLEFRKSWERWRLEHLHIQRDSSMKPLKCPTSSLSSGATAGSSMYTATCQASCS

(H7F),(E9Q),GLP(8-36)-CEX (peptide)
% potency with respect to GLP-1 (GLP-1 receptor [1]): 33.3%

F^5V^6-O-F^7,GLP(8-36)-CEX (peptide)
% potency with respect to parent (GLP-1 receptor [1]): 1.3%

G^5V^6-O-F^7,GLP(8-36)CEX (peptide)
% potency with respect to parent (GLP-1 receptor [1]): 12% | % potency with respect to parent, before incubation (GLP-1 receptor [1]): 10.9% | % potency with respect to parent, prodrug incubated in PBS for 24 hrs (GLP-1 receptor [1]): 46% | % potency with respect to parent, prodrug incubated in PBS for 168 hrs (GLP-1 receptor [1]): 95.8%

HO-F5dV6-O-F7,GLP(8-36)-CEX (peptide)
% potency with respect to parent (GLP-1 receptor [2]): 7%

HO-F^5F^6-O-F^7,GLP(8-36)-CEX (peptide)
% potency with respect to parent (GLP-1 receptor [1]): 3.6% | % potency with respect to parent, before incubation (GLP-1 receptor [1]): 3.7% | % potency with respect to parent, prodrug incubated in PBS for 24 hrs (GLP-1 receptor [1]): 17.2%

[A2E3, E16K20(Lactam), D28]G(1~29) (peptide)
GLP-1 EC50 (GLP-1 receptor [2]): 0.0002 µM | Glucagon IC50 (glucagon receptor): 0.13 µM

[A2E3, E16K20(Lactam), D28]G(2~29) (peptide)
Glucagon IC50 (glucagon receptor): 0.063 µM

[E9, E16K20(lactam), D28]G(4~29) (peptide)
GLP-1 EC50 (GLP-1 receptor [2]): 0.151 µM | Glucagon IC50 (glucagon receptor): 0.01 to 0.03 µM

[PLA6, D9, E16, E24K28(lactam), D28]G(6~29) (peptide)
GLP-1 EC50 (GLP-1 receptor [2]): 0.289 µM | Glucagon IC50 (glucagon receptor): 0.022 µM

[PLA6, D9, E16, K20E24(Lactam), D28]G(6-29) (peptide)
GLP-1 EC50 (GLP-1 receptor [2]): 0.239 µM | Glucagon IC50 (glucagon receptor): 0.074 µM

[PLA6, D9, E16K20(lactam), D28]G(6-29) (peptide)
GLP-1 EC50 (GLP-1 receptor [2]): 0.005 to 0.025 µM | GLP-1 EC50 (GLP-1 receptor [2]; record 2): 0.004 µM | Glucagon IC50 (glucagon receptor): 0.01 to 0.03 µM | Glucagon IC50 (glucagon receptor; record 2): 0.006 µM

[PLA6, D9, K12E16(Lactam), D28]G(6-29) (peptide)
GLP-1 EC50 (GLP-1 receptor [2]): 0.177 µM | GLP-1 EC50 (GLP-1 receptor [2]; record 2): 0.021 µM | Glucagon IC50 (glucagon receptor): 0.063 µM | Glucagon IC50 (glucagon receptor; record 2): 0.013 µM
